Reference: PMC5790771, “Reconstitution of Pure Chaperonin Hetero-Oligomer Preparations in Vitro by Temperature Modulation” (Frontiers in Molecular Biosciences, 2018)

B1: Cpn60α2 (At2g28000) (natural protein)
chain: not shown
notes: additional glycine-serine at the N-terminus, left by the cloning (printed in words); Cpn60α2, chloroplast chaperonin 60 alpha subunit of A. thaliana, At2g28000; 541 residues without the putative transit peptide; The vector codes for an octa-histidine tag followed by a TEV site at the amino terminus; also called α2 Cpn60; Cpn60α2 subunit; source: E. coli Rosetta (Novagen), purified based on the …
B2: Cpn60β2 (At3g13470) (natural protein, A. thaliana, UniProt Q9LJE4 51-596, looked up)
chain: AAKELHFNKDGTTIRKLQTGVNKLADLVGVTLGPKGRNVVLESKYGSPRIVNDGVTVAREVELEDPVENIGAKLVRQAAAKTNDLAGDGTTTSVVLAQGFIAEGVKVVAAGANPVLITRGIEKTAKALVNELKLMSKEVEDSELADVAAVSAGNNHEVGSMIAEAMSKVGRKGVVTLEEGKSAENNLYVVEGMQFDRGYISPYFVTDSEKMSVEYDNCKLLLVDKKVTNARDLVGVLEDAIRGGYPILIIAEDIEQEALATLVVNKLRGTLKIAALKAPGFGERKSQYLDDIAILTGATVIREEVGLSLDKAGKEVLGNASKVVLTKEMTTIVGDGTTQEAVNKRVVQIRNLIEQAEQDYEKEKLNERIAKLSGGVAVIQVGAQTETELKEKKLRVEDALNATKAAVEEGIVVGGGCTLLRLASKVDAIKDTLENDEEKVGAEIVKRALSYPLKLIAKNAGVNGSVVSEKVLANDNVKFGYNAATGKYEDLMAAGIIDPTKVVRCCLEHAASVAKTFLMSDCVVVEIPEPEPVPAGNPMDNSGYGY
notes: Cpn60β2, chloroplast chaperonin 60 beta subunit of A. thaliana, At3g13470; also called β2 Cpn60; source: purified by a previously published protocol (Vitlin et al., 2011)
B3: Cpn60α1 (At5g18820) (natural protein)
chain: not shown
notes: additional glycine-serine at the N-terminus, left by the cloning (printed in words); Cpn60α1, chloroplast chaperonin 60 alpha subunit of A. thaliana, At5g18820; 543 residues without the putative transit peptide; The vector codes for an octa-histidine tag followed by a TEV site at the amino terminus; also called α1 Cpn60; Cpn60α1 subunit; source: E. coli Rosetta (Novagen), purified based on the …

How the values were obtained:
Cpn60β2 (At3g13470) = target: B2; assay: SEC; 150 μM α2, 100 μM β2 and 50 μM mt-cpn10 reconstituted with Mg-ATP (2 ml), Superdex 200 run at 4°C in 50 mM Tris-HCl pH 8, 300 mM NaCl, 5% glycerol; fractions on SDS-PAGE; settings: both partners purified
Cpn60β3 (At1g55490) = target: T1, Cpn60β3 (At1g55490) (A. thaliana, UniProt P21240 55-600); assay: native gel or EMSA; reconstitution: 150 μM Cpn60α2 with 100 μM Cpn60β and 50 μM Cpn10 (GroES, mt-cpn10, Cpn20 or Cpn10(2)); 50 mM Tris-HCl pH 8, 0.3 M NaCl, 10 mM MgCl2, 16 mM KCl, 2 mM DTT, 5 mM ATP; 5 min at room temperature, 1 h at 30°C; 6% native polyacrylamide gel; settings: both partners purified
T1 construct: Cpn60β3, chloroplast chaperonin 60 beta subunit of A. thaliana, At1g55490; also called β3 Cpn60; source: purified by a previously published protocol (Vitlin et al., 2011)

[1] = target: the molecule itself; assay: SEC; 300 μM β2 and 150 μM mt-cpn10 reconstituted with Mg-ATP (600 μl), Superdex 200 run at room temperature; fractions on SDS-PAGE
[2] = target: the molecule itself; assay: cross-linking; 20 μM purified protein, 0.1% glutaraldehyde, room temperature, 50 mM Na-HEPES (pH 8 in the legend, 7.5 in the methods), 10 mM MgCl2, 100 mM KCl; SDS-PAGE on a 2.4-12% gradient gel, Coomassie

T1 sequence (P21240 55-600): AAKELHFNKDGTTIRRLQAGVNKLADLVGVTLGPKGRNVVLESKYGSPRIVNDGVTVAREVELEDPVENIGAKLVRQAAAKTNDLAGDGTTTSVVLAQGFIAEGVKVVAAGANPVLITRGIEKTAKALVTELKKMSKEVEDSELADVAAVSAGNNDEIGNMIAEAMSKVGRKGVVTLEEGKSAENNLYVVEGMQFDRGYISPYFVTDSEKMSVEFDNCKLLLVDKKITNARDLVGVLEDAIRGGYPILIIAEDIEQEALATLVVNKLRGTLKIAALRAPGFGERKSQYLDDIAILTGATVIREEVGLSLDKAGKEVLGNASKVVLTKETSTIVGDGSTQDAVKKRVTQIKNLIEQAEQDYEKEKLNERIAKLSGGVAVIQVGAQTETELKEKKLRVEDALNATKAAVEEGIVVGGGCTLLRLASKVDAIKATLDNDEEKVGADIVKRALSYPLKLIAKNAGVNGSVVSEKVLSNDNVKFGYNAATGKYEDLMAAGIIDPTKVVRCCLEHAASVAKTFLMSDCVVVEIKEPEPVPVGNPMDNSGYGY

Binder: B1
binding result (Cpn60β2 (At3g13470)): binds | binding result (Cpn60β3 (At1g55490)): binds

Binder: B2
binding result [1]: binds

Binder: B3
stoichiometry N [2]: 2
